Patent US20140141450A1
Blank lines part the entries; values can stand above or below the substance they belong to.

Tests used:
[1] = tested on: T1, Peptide probe sequence II: Biotin-(mPeg2)IEGRGS (KBv TAG Plus) amide
T1 sequence: IEGRGSK

[2] = tested on: T2, Peptide sequence V: Bz-IEGRDYKDDDDKGSHHHHHH(mPeg2)(KLCBiot)-amide
T2 sequence: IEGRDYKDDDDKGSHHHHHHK

[3] = tested on: T3, NH2-IEGRDYKDDDDKGS-TAG (SEQ ID NO:5)
T3 sequence: IEGRDYKDDDDKGS

[4] = tested on: T4, Peptide probe sequence I: Biotin-IEGRGS (KBv TAG Plus) amide
T4 sequence: IEGRGSK

[5] = tested on: T5, Peptide sequence VI: NH2-IEGRDYKDDDDKGS-amide
T5 sequence: IEGRDYKDDDDKGS

[6] = target: Peptide sequence V: Bz-…(mPeg2)(KLCBiot)-amide; assay: ECL bead immunoassay; uncleaved peptide sequence V on streptavidin beads, FXa 0.00 ng/mL, 20 minute incubation
[7] = target: Peptide sequence V: Bz-…(mPeg2)(KLCBiot)-amide; assay: ECL bead immunoassay; uncleaved peptide sequence V on streptavidin beads, FXa 0.00 ng/mL, 10 minute incubation

Substance: factor Xa (FXa)
- % Signal Decrease, FXa 78.1 ng/mL [1]: 0%
- % Signal Decrease, FXa 156 ng/mL [1]: -4%
- % Signal Decrease, FXa 313 ng/mL [1]: -11%
- % Signal Decrease, FXa 625 ng/mL [1]: -10%
- % Signal Decrease, FXa 1250 ng/mL [1]: -24%
- % Signal Decrease, FXa 2500 ng/mL [1]: -39%
- % Signal Decrease, FXa 5000 ng/mL [1]: -66%
- Mean Signal (ECL), FXa 78.1 ng/mL [1]: 340000 ECL signal
- Mean Signal (ECL), FXa 156 ng/mL [1]: 326000 ECL signal
- Mean Signal (ECL), FXa 313 ng/mL [1]: 303000 ECL signal
- Mean Signal (ECL), FXa 625 ng/mL [1]: 306000 ECL signal
- Mean Signal (ECL), FXa 1250 ng/mL [1]: 257000 ECL signal
- Mean Signal (ECL), FXa 2500 ng/mL [1]: 209000 ECL signal
- Mean Signal (ECL), FXa 5000 ng/mL [1]: 117000 ECL signal
- Mean Signal (ECL, TAG Plus anti-FLAG M1 detector), FXa 0.686 ng/mL, 10 minute incubation [2]: 856 ECL signal
- Mean Signal (ECL, TAG Plus anti-FLAG M1 detector), FXa 0.686 ng/mL, 20 minute incubation [2]: 1050 ECL signal
- Mean Signal (ECL, TAG Plus anti-FLAG M1 detector), FXa 2.06 ng/mL, 10 minute incubation [2]: 1430 ECL signal
- Mean Signal (ECL, TAG Plus anti-FLAG M1 detector), FXa 2.06 ng/mL, 20 minute incubation [2]: 2110 ECL signal
- Mean Signal (ECL, TAG Plus anti-FLAG M1 detector), FXa 6.17 ng/mL, 10 minute incubation [2]: 3100 ECL signal
- Mean Signal (ECL, TAG Plus anti-FLAG M1 detector), FXa 6.17 ng/mL, 20 minute incubation [2]: 6040 ECL signal
- Mean Signal (ECL, TAG Plus anti-FLAG M1 detector), FXa 18.5 ng/mL, 10 minute incubation [2]: 8790 ECL signal
- Mean Signal (ECL, TAG Plus anti-FLAG M1 detector), FXa 18.5 ng/mL, 20 minute incubation [2]: 20700 ECL signal
- Mean Signal (ECL, TAG Plus anti-FLAG M1 detector), FXa 55.6 ng/mL, 10 minute incubation [2]: 33700 ECL signal
- Mean Signal (ECL, TAG Plus anti-FLAG M1 detector), FXa 55.6 ng/mL, 20 minute incubation [2]: 74000 ECL signal
- Mean Signal (ECL, TAG Plus anti-FLAG M1 detector), FXa 167 ng/mL, 10 minute incubation [2]: 113000 ECL signal
- Mean Signal (ECL, TAG Plus anti-FLAG M1 detector), FXa 167 ng/mL, 20 minute incubation [2]: 225000 ECL signal
- Mean Signal (ECL, TAG Plus anti-FLAG M1 detector), FXa 500 ng/mL, 10 minute incubation [2]: 298000 ECL signal
- Mean Signal (ECL, TAG Plus anti-FLAG M1 detector), FXa 500 ng/mL, 20 minute incubation [2]: 498000 ECL signal
- Signal/Background, FXa 0.686 ng/mL, 10 minute incubation [2]: 2.5
- Signal/Background, FXa 0.686 ng/mL, 20 minute incubation [2]: 3.3
- Signal/Background, FXa 2.06 ng/mL, 10 minute incubation [2]: 4.1
- Signal/Background, FXa 2.06 ng/mL, 20 minute incubation [2]: 6.6
- Signal/Background, FXa 6.17 ng/mL, 10 minute incubation [2]: 9
- Signal/Background, FXa 6.17 ng/mL, 20 minute incubation [2]: 19
- Signal/Background, FXa 18.5 ng/mL, 10 minute incubation [2]: 25
- Signal/Background, FXa 18.5 ng/mL, 20 minute incubation [2]: 65
- Signal/Background, FXa 55.6 ng/mL, 10 minute incubation [2]: 98
- Signal/Background, FXa 55.6 ng/mL, 20 minute incubation [2]: 232
- Signal/Background, FXa 167 ng/mL, 10 minute incubation [2]: 328
- Signal/Background, FXa 167 ng/mL, 20 minute incubation [2]: 706
- Signal/Background, FXa 500 ng/mL, 10 minute incubation [2]: 864
- Signal/Background, FXa 500 ng/mL, 20 minute incubation [2]: 1560
- Mean Signal (ECL, capture on anti-FLAG M1 beads), FXa 1.37 ng/mL, peptide 1.25 µg/mL [3]: 1140 ECL signal
- Mean Signal (ECL, capture on anti-FLAG M1 beads), FXa 1.37 ng/mL, peptide 2.5 µg/mL [3]: 1390 ECL signal
- Mean Signal (ECL, capture on anti-FLAG M1 beads), FXa 1.37 ng/mL, peptide 5.0 µg/mL [3]: 3720 ECL signal
- Mean Signal (ECL, capture on anti-FLAG M1 beads), FXa 4.12 ng/mL, peptide 1.25 µg/mL [3]: 2170 ECL signal
- Mean Signal (ECL, capture on anti-FLAG M1 beads), FXa 4.12 ng/mL, peptide 2.5 µg/mL [3]: 3830 ECL signal
- Mean Signal (ECL, capture on anti-FLAG M1 beads), FXa 4.12 ng/mL, peptide 5.0 µg/mL [3]: 6360 ECL signal
- Mean Signal (ECL, capture on anti-FLAG M1 beads), FXa 12.3 ng/mL, peptide 1.25 µg/mL [3]: 4440 ECL signal
- Mean Signal (ECL, capture on anti-FLAG M1 beads), FXa 12.3 ng/mL, peptide 2.5 µg/mL [3]: 7700 ECL signal
- Mean Signal (ECL, capture on anti-FLAG M1 beads), FXa 12.3 ng/mL, peptide 5.0 µg/mL [3]: 14900 ECL signal
- Mean Signal (ECL, capture on anti-FLAG M1 beads), FXa 37.0 ng/mL, peptide 1.25 µg/mL [3]: 10700 ECL signal
- Mean Signal (ECL, capture on anti-FLAG M1 beads), FXa 37.0 ng/mL, peptide 2.5 µg/mL [3]: 20100 ECL signal
- Mean Signal (ECL, capture on anti-FLAG M1 beads), FXa 37.0 ng/mL, peptide 5.0 µg/mL [3]: 32300 ECL signal
- Mean Signal (ECL, capture on anti-FLAG M1 beads), FXa 111 ng/mL, peptide 1.25 µg/mL [3]: 20500 ECL signal
- Mean Signal (ECL, capture on anti-FLAG M1 beads), FXa 111 ng/mL, peptide 2.5 µg/mL [3]: 41800 ECL signal
- Mean Signal (ECL, capture on anti-FLAG M1 beads), FXa 111 ng/mL, peptide 5.0 µg/mL [3]: 62100 ECL signal
- Mean Signal (ECL, capture on anti-FLAG M1 beads), FXa 333 ng/mL, peptide 1.25 µg/mL [3]: 52800 ECL signal
- Mean Signal (ECL, capture on anti-FLAG M1 beads), FXa 333 ng/mL, peptide 2.5 µg/mL [3]: 62700 ECL signal
- Mean Signal (ECL, capture on anti-FLAG M1 beads), FXa 333 ng/mL, peptide 5.0 µg/mL [3]: 78700 ECL signal
- Mean Signal (ECL, capture on anti-FLAG M1 beads), FXa 1000 ng/mL, peptide 1.25 µg/mL [3]: 69000 ECL signal
- Mean Signal (ECL, capture on anti-FLAG M1 beads), FXa 1000 ng/mL, peptide 2.5 µg/mL [3]: 78200 ECL signal
- Mean Signal (ECL, capture on anti-FLAG M1 beads), FXa 1000 ng/mL, peptide 5.0 µg/mL [3]: 86900 ECL signal
- Signal/Background, FXa 1.37 ng/mL, peptide 1.25 µg/mL [3]: 1.9
- Signal/Background, FXa 1.37 ng/mL, peptide 2.5 µg/mL [3]: 1.6
- Signal/Background, FXa 1.37 ng/mL, peptide 5.0 µg/mL [3]: 2.1
- Signal/Background, FXa 4.12 ng/mL, peptide 1.25 µg/mL [3]: 3.7
- Signal/Background, FXa 4.12 ng/mL, peptide 2.5 µg/mL [3]: 4.5
- Signal/Background, FXa 4.12 ng/mL, peptide 5.0 µg/mL [3]: 3.6
- Signal/Background, FXa 12.3 ng/mL, peptide 1.25 µg/mL [3]: 7.5
- Signal/Background, FXa 12.3 ng/mL, peptide 2.5 µg/mL [3]: 9
- Signal/Background, FXa 12.3 ng/mL, peptide 5.0 µg/mL [3]: 8.4
- Signal/Background, FXa 37.0 ng/mL, peptide 1.25 µg/mL [3]: 18
- Signal/Background, FXa 37.0 ng/mL, peptide 2.5 µg/mL [3]: 24
- Signal/Background, FXa 37.0 ng/mL, peptide 5.0 µg/mL [3]: 18
- Signal/Background, FXa 111 ng/mL, peptide 1.25 µg/mL [3]: 35
- Signal/Background, FXa 111 ng/mL, peptide 2.5 µg/mL [3]: 49
- Signal/Background, FXa 111 ng/mL, peptide 5.0 µg/mL [3]: 35
- Signal/Background, FXa 333 ng/mL, peptide 1.25 µg/mL [3]: 89
- Signal/Background, FXa 333 ng/mL, peptide 2.5 µg/mL [3]: 73
- Signal/Background, FXa 333 ng/mL, peptide 5.0 µg/mL [3]: 45
- Signal/Background, FXa 1000 ng/mL, peptide 1.25 µg/mL [3]: 116
- Signal/Background, FXa 1000 ng/mL, peptide 2.5 µg/mL [3]: 91
- Signal/Background, FXa 1000 ng/mL, peptide 5.0 µg/mL [3]: 49
- % Signal Decrease, FXa 78.1 ng/mL [4]: -3%
- % Signal Decrease, FXa 156 ng/mL [4]: -3%
- % Signal Decrease, FXa 313 ng/mL [4]: -9%
- % Signal Decrease, FXa 625 ng/mL [4]: -15%
- % Signal Decrease, FXa 1250 ng/mL [4]: -31%
- % Signal Decrease, FXa 2500 ng/mL [4]: -53%
- % Signal Decrease, FXa 5000 ng/mL [4]: -76%
- Mean Signal (ECL), FXa 78.1 ng/mL [4]: 414000 ECL signal
- Mean Signal (ECL), FXa 156 ng/mL [4]: 413000 ECL signal
- Mean Signal (ECL), FXa 313 ng/mL [4]: 388000 ECL signal
- Mean Signal (ECL), FXa 625 ng/mL [4]: 363000 ECL signal
- Mean Signal (ECL), FXa 1250 ng/mL [4]: 296000 ECL signal
- Mean Signal (ECL), FXa 2500 ng/mL [4]: 202000 ECL signal
- Mean Signal (ECL), FXa 5000 ng/mL [4]: 104000 ECL signal
- % Signal Decrease, Xa 0.686 ng/mL [5]: -8.5%
- % Signal Decrease, Xa 2.06 ng/mL [5]: -22%
- % Signal Decrease, Xa 6.17 ng/mL [5]: -42%
- % Signal Decrease, Xa 18.5 ng/mL [5]: -60%
- % Signal Decrease, Xa 55.6 ng/mL [5]: -75%
- % Signal Decrease, Xa 167 ng/mL [5]: -84%
- % Signal Decrease, Xa 500 ng/mL [5]: -89%
- Mean Signal (ECL, competitive format), Xa 0.686 ng/mL [5]: 84000 ECL signal
- Mean Signal (ECL, competitive format), Xa 2.06 ng/mL [5]: 71900 ECL signal
- Mean Signal (ECL, competitive format), Xa 6.17 ng/mL [5]: 53000 ECL signal
- Mean Signal (ECL, competitive format), Xa 18.5 ng/mL [5]: 36400 ECL signal
- Mean Signal (ECL, competitive format), Xa 55.6 ng/mL [5]: 22500 ECL signal
- Mean Signal (ECL, competitive format), Xa 167 ng/mL [5]: 14300 ECL signal
- Mean Signal (ECL, competitive format), Xa 500 ng/mL [5]: 9830 ECL signal

- Mean Signal (ECL, background without FXa) [6]: 319 ECL signal
- Mean Signal (ECL, background without FXa) [7]: 345 ECL signal
Substance: BV TAG Plus-conjugated ANTI-FLAG® M1 antibody
